# What was measured:
# [1] = target: 55S mitoribosome (re-associated);mtIF2;mtIF3 (Homo sapiens (HEK293S TetR GnTI-);Homo sapiens;Homo sapiens) (UniProt P46199+Q9H2K0); test: sucrose gradient co-sedimentation, Cy3 fluorescence; details: + E. coli fMet-tRNAfMet; 200 nM 55S or 28S, 240 nM mtIF2, 240 nM mtIF3, 240 nM fMet-tRNAfMet, 400 nM mRNA; 37 C 30 min (then ice 15 min for mRNA binding); filter wash with 20 mM Mg2+ …
# [2] = target: 55S mitoribosome, subunits crosslinked;mtIF2 (Homo sapiens (HEK293S TetR GnTI-);Homo sapiens) (UniProt P46199); test: as above; details: + E. coli fMet-tRNAfMet; no mtIF3; 200 nM 55S or 28S, 240 nM mtIF2, 240 nM mtIF3, 240 nM fMet-tRNAfMet, 400 nM mRNA; 37 C 30 min (then ice 15 min for mRNA binding); filter wash with 20 mM Mg2+ …
# [3] = target: 55S mitoribosome (crude);mtIF2;mtIF3 (bovine (liver);Homo sapiens;Homo sapiens) (UniProt P46199+Q9H2K0); test: co-sedimentation; details: 200 nM 55S or 28S, 240 nM mtIF2, 240 nM mtIF3, 240 nM fMet-tRNAfMet, 400 nM mRNA, 37 C 30 min (then ice 15 min for mRNA binding), filter wash with 20 mM Mg2+ …
# UniProt P46199, sequence (P46199 whole entry, looked up, tested part not stated): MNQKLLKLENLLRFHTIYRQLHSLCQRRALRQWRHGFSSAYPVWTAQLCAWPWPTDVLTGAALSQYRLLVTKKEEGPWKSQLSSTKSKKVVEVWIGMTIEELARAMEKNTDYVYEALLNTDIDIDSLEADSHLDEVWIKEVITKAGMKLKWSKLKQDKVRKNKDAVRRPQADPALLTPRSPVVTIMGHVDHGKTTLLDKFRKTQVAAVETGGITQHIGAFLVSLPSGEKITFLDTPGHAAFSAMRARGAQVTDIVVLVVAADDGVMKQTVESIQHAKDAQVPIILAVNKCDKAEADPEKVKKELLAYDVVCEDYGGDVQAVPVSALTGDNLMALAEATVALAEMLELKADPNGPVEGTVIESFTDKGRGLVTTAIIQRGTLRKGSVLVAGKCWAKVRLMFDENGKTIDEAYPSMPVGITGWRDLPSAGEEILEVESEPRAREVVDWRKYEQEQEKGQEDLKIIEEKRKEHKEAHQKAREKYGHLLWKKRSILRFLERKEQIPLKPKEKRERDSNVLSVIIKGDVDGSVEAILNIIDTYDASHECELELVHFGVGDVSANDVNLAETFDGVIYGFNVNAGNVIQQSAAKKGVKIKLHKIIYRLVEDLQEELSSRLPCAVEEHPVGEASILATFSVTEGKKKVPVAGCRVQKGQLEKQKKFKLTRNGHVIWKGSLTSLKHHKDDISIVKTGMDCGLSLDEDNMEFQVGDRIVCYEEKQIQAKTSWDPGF
substance,measurement,setting,value
AUGGCACAUGCAGCGCAAGUAGGUCUACAA [MTCO2 mRNA first 30 nt],binding signal (% of 55S with mRNA bound),[1],50
same,binding signal (% of 55S with mRNA bound),[2],25
Phe-tRNAPhe,binding signal (% of 55S with [3H]-Phe-tRNAPhe),"[3]; + EF-Tu, 30-nt leaderless mRNA S2, fMet-tRNAfMet",22
fMet-tRNAfMet (35S),binding signal (% of 55S with [35S]-fMet-tRNAfMet),"[3]; + 30-nt leaderless mRNA S2, EF-Tu, Phe-tRNAPhe",27

# Reference: PMC9881170
